Data: paper PMC4779226

Legend:
[1] = molecular target: ChrC-His6, Fe superoxide dismutase ChrC of TnOtchr from Ochrobactrum tritici 5bvl1 (Ochrobactrum tritici 5bvl1); experiment: cross-linking; 10 ug purified enzyme with 0.1 % glutaraldehyde in 20 mM NaCl, 10 mM KCl, 2 mM DTT, 20 mM Hepes pH 7.5; 5, 15 and 30 min at 30 °C; 12 % SDS-PAGE
[2] = molecular target: ChrC-His6, Fe superoxide dismutase ChrC of TnOtchr from Ochrobactrum tritici 5bvl1 (Ochrobactrum tritici 5bvl1); experiment: SEC; Superdex 200 10/300 GL, 0.5 mL/min, 50 mM Tris-HCl, 0.15 M NaCl, pH 7.4; mass from a curve of standard proteins
[3] = molecular target: ChrF-His6, Mn superoxide dismutase ChrF of TnOtchr from Ochrobactrum tritici 5bvl1 (Ochrobactrum tritici 5bvl1); experiment: cross-linking; 10 ug purified enzyme with 0.1 % glutaraldehyde in 20 mM NaCl, 10 mM KCl, 2 mM DTT, 20 mM Hepes pH 7.5; 5, 15 and 30 min at 30 °C; 12 % SDS-PAGE
[4] = molecular target: ChrF-His6, Mn superoxide dismutase ChrF of TnOtchr from Ochrobactrum tritici 5bvl1 (Ochrobactrum tritici 5bvl1); experiment: SEC; Superdex 200 10/300 GL, 0.5 mL/min, 50 mM Tris-HCl, 0.15 M NaCl, pH 7.4; mass from a curve of standard proteins

stoichiometry N [1] | stoichiometry N [2] | stoichiometry N [3] | stoichiometry N [4] | Substance
4 | 4 | – | – | ChrC-His6, Fe superoxide dismutase ChrC of TnOtchr from Ochrobactrum tritici 5bvl1 (enzyme)
– | – | 2 | 2 | ChrF-His6, Mn superoxide dismutase ChrF of TnOtchr from Ochrobactrum tritici 5bvl1 (enzyme)
